Consider twelve molecules from article PMC4570271, “Resolution of structure of PIP5K1A reveals molecular mechanism for its regulation by dimerization and dishevelled” (Nature Communications, 2015).

A word on the Kd: it is a measure of binding affinity in units of concentration.

Test [1] concerns the target T1, GST-tagged DIX domain of mouse DVL1 (residues 1-106) with Y17D (mouse, UniProt P51141 1-106, Y17D).
T1 construct: DIX domain of mouse DVL1, residues 1-106, Y17D to eliminate DIX aggregation; A longer construct 1-200 (DIX-L) is named in the methods but tied to no experiment; also called DVL DIX; GST-DVL; source: E. coli, purified (glutathione-agarose beads, size-exclusion chromatography)
T1 sequence (looked up): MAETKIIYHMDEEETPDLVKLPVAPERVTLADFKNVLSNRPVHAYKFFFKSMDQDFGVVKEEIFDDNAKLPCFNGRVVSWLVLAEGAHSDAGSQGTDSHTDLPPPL
The test can be described thus: pull-down; GST-DIX (or GST) 0.5 μg and His-tagged PIP5K1 0.5 μg in 200 μl of 10 mM HEPES (pH 7.4), 150 mM NaCl, 0.2% Triton, 0.01% SDS, 3 mM dithiothreitol, 10% glycerol; 4 °C overnight; glutathione beads; western blotting. The note with it: both partners purified. A general note: A western blot detects proteins with antibodies after separation by electrophoresis.

The target in test [2] is T1, GST-tagged DIX domain of mouse DVL1 …. The test can be described thus: cell-based or functional assay.
A further test addresses T2, Dix109.
T2 chain: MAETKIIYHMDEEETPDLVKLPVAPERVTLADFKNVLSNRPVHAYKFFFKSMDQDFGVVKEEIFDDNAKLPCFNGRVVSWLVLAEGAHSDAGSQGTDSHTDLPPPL
The experiment in a line: ITC. The note with it: chain shown with the change;.

B1: zebrafish PIP5K1A kinase catalytic domain, D276A mutant (domain or fragment)
chain: MASTGETTYKKTTSSALKGAIQLGITHSVGSLSQKPERDVLMQDFEVVESIFFPSQGSSSTPGHHHGDFKFKTYAPIAFRYFREMFGIRPDDYLYSLCNEPLIELSNPGASGSLFYVSSDDEFIIKTVQHKEAEFLQTLLPGYFMNLNQNMRTLLPKFYGLYCVQADGKNIRIVVMNNLLPRAVPMHLKFDLKGSTYKRRASPKERSKGVPTYKDLDFMQDMPEGILLENAHYTALSRTMQRDCRVLQSFKIMDYSLLVGIHILHRAGEEASTAVPDTQKKGQGQKPLYCTAIESIQGESKSKTSPQPYESMGGIPAFNSKGERLLVFIGIIDILQSYRLVKKLEHSWKALLHDGDTVSVHRPSFYADRFQKFMCSTVFRKSQLKTLE
notes: kinase catalytic domain of zebrafish PIP5K1Aα, residues 49-431; C-terminal 'Leu-Glu' that precedes the His6 tag; source: E. coli BL21-CodonPlus(DE3)-RIL, purified in the same way as the wild-type protein; not shown: His6, C-terminal, kept
As to B1, in test [1], the “reduction of the interaction against the wild type” value (“reduction of the interaction” below) is greater than 70%.

B2: zebrafish PIP5K1A kinase catalytic domain, triple D84R/L86A/V291A (DLV) mutant (domain or fragment)
chain: MASTGETTYKKTTSSALKGAIQLGITHSVGSLSQKPERRVAMQDFEVVESIFFPSQGSSSTPGHHHGDFKFKTYAPIAFRYFREMFGIRPDDYLYSLCNEPLIELSNPGASGSLFYVSSDDEFIIKTVQHKEAEFLQTLLPGYFMNLNQNMRTLLPKFYGLYCVQADGKNIRIVVMNNLLPRAVPMHLKFDLKGSTYKRRASPKERSKGVPTYKDLDFMQDMPEGILLENDHYTALSRTMQRDCRALQSFKIMDYSLLVGIHILHRAGEEASTAVPDTQKKGQGQKPLYCTAIESIQGESKSKTSPQPYESMGGIPAFNSKGERLLVFIGIIDILQSYRLVKKLEHSWKALLHDGDTVSVHRPSFYADRFQKFMCSTVFRKSQLKTLE
As to B2, the “fold activation of the lipid kinase activity by DIX” value in test [2] was greater than 30 fold. Further, the Kd with Dix109 (parent: 1.2 µM) was 800 nM. Also, the other: N in the test with Dix109 (parent: 1.01 ± 0.09) is 0.98. Further, in the test with Dix109 (parent: 120 ± 16 KJ mol-1), the other: -TΔS stood at 53.8 kcal/mol. The dG in the test with Dix109 (parent: -31.0 ± 3.5 KJ mol-1) is -8.32 kcal/mol. For the same molecule, the other: ΔH with Dix109 (parent: -151 ± 19 KJ mol-1) is -62.1 kcal/mol.

B3: zebrafish PIP5K1A kinase catalytic domain, F131A mutant (domain or fragment)
chain: MASTGETTYKKTTSSALKGAIQLGITHSVGSLSQKPERDVLMQDFEVVESIFFPSQGSSSTPGHHHGDFKFKTYAPIAFRYFREMAGIRPDDYLYSLCNEPLIELSNPGASGSLFYVSSDDEFIIKTVQHKEAEFLQTLLPGYFMNLNQNMRTLLPKFYGLYCVQADGKNIRIVVMNNLLPRAVPMHLKFDLKGSTYKRRASPKERSKGVPTYKDLDFMQDMPEGILLENDHYTALSRTMQRDCRVLQSFKIMDYSLLVGIHILHRAGEEASTAVPDTQKKGQGQKPLYCTAIESIQGESKSKTSPQPYESMGGIPAFNSKGERLLVFIGIIDILQSYRLVKKLEHSWKALLHDGDTVSVHRPSFYADRFQKFMCSTVFRKSQLKTLE
notes: as for B1
Turning to B3, the “change in the interaction against the wild type” value (“change in the interaction” below) in test [1] was no more than 20%.

B4: zebrafish PIP5K1A kinase catalytic domain, Y140A mutant (domain or fragment)
chain: MASTGETTYKKTTSSALKGAIQLGITHSVGSLSQKPERDVLMQDFEVVESIFFPSQGSSSTPGHHHGDFKFKTYAPIAFRYFREMFGIRPDDYLASLCNEPLIELSNPGASGSLFYVSSDDEFIIKTVQHKEAEFLQTLLPGYFMNLNQNMRTLLPKFYGLYCVQADGKNIRIVVMNNLLPRAVPMHLKFDLKGSTYKRRASPKERSKGVPTYKDLDFMQDMPEGILLENDHYTALSRTMQRDCRVLQSFKIMDYSLLVGIHILHRAGEEASTAVPDTQKKGQGQKPLYCTAIESIQGESKSKTSPQPYESMGGIPAFNSKGERLLVFIGIIDILQSYRLVKKLEHSWKALLHDGDTVSVHRPSFYADRFQKFMCSTVFRKSQLKTLE
notes: kinase catalytic domain of zebrafish PIP5K1Aα, residues 49-431; the residue is printed 'Try-140' in the results and Y140A later; C-terminal 'Leu-Glu' that precedes the His6 tag; also called Try-140 to Ala; source: E. coli BL21-CodonPlus(DE3)-RIL, purified in the same way as the wild-type protein; not shown: His6, C-terminal, kept
B4: the “change in the interaction” value in test [1] was no more than 20%.

B5: zebrafish PIP5K1A kinase catalytic domain, Y126A mutant (domain or fragment)
chain: MASTGETTYKKTTSSALKGAIQLGITHSVGSLSQKPERDVLMQDFEVVESIFFPSQGSSSTPGHHHGDFKFKTYAPIAFRAFREMFGIRPDDYLYSLCNEPLIELSNPGASGSLFYVSSDDEFIIKTVQHKEAEFLQTLLPGYFMNLNQNMRTLLPKFYGLYCVQADGKNIRIVVMNNLLPRAVPMHLKFDLKGSTYKRRASPKERSKGVPTYKDLDFMQDMPEGILLENDHYTALSRTMQRDCRVLQSFKIMDYSLLVGIHILHRAGEEASTAVPDTQKKGQGQKPLYCTAIESIQGESKSKTSPQPYESMGGIPAFNSKGERLLVFIGIIDILQSYRLVKKLEHSWKALLHDGDTVSVHRPSFYADRFQKFMCSTVFRKSQLKTLE
notes: as for B1
As to B5, the “reduction of the interaction” value in test [1] was greater than 70%.

B6: zebrafish PIP5K1A kinase catalytic domain, E167A mutant (domain or fragment)
chain: MASTGETTYKKTTSSALKGAIQLGITHSVGSLSQKPERDVLMQDFEVVESIFFPSQGSSSTPGHHHGDFKFKTYAPIAFRYFREMFGIRPDDYLYSLCNEPLIELSNPGASGSLFYVSSDDAFIIKTVQHKEAEFLQTLLPGYFMNLNQNMRTLLPKFYGLYCVQADGKNIRIVVMNNLLPRAVPMHLKFDLKGSTYKRRASPKERSKGVPTYKDLDFMQDMPEGILLENDHYTALSRTMQRDCRVLQSFKIMDYSLLVGIHILHRAGEEASTAVPDTQKKGQGQKPLYCTAIESIQGESKSKTSPQPYESMGGIPAFNSKGERLLVFIGIIDILQSYRLVKKLEHSWKALLHDGDTVSVHRPSFYADRFQKFMCSTVFRKSQLKTLE
notes: as for B1
For B6, the “change in the interaction” value in test [1] was no more than 20%.

B7: zebrafish PIP5K1A kinase catalytic domain, E149A mutant (domain or fragment)
chain: MASTGETTYKKTTSSALKGAIQLGITHSVGSLSQKPERDVLMQDFEVVESIFFPSQGSSSTPGHHHGDFKFKTYAPIAFRYFREMFGIRPDDYLYSLCNEPLIALSNPGASGSLFYVSSDDEFIIKTVQHKEAEFLQTLLPGYFMNLNQNMRTLLPKFYGLYCVQADGKNIRIVVMNNLLPRAVPMHLKFDLKGSTYKRRASPKERSKGVPTYKDLDFMQDMPEGILLENDHYTALSRTMQRDCRVLQSFKIMDYSLLVGIHILHRAGEEASTAVPDTQKKGQGQKPLYCTAIESIQGESKSKTSPQPYESMGGIPAFNSKGERLLVFIGIIDILQSYRLVKKLEHSWKALLHDGDTVSVHRPSFYADRFQKFMCSTVFRKSQLKTLE
notes: as for B1
For the molecule B7, in test [1], the “change in the interaction” value is no more than 20%.

B8: zebrafish PIP5K1A kinase catalytic domain, E82A mutant (domain or fragment)
chain: MASTGETTYKKTTSSALKGAIQLGITHSVGSLSQKPARDVLMQDFEVVESIFFPSQGSSSTPGHHHGDFKFKTYAPIAFRYFREMFGIRPDDYLYSLCNEPLIELSNPGASGSLFYVSSDDEFIIKTVQHKEAEFLQTLLPGYFMNLNQNMRTLLPKFYGLYCVQADGKNIRIVVMNNLLPRAVPMHLKFDLKGSTYKRRASPKERSKGVPTYKDLDFMQDMPEGILLENDHYTALSRTMQRDCRVLQSFKIMDYSLLVGIHILHRAGEEASTAVPDTQKKGQGQKPLYCTAIESIQGESKSKTSPQPYESMGGIPAFNSKGERLLVFIGIIDILQSYRLVKKLEHSWKALLHDGDTVSVHRPSFYADRFQKFMCSTVFRKSQLKTLE
notes: as for B1
In the case of B8, in test [1], the “change in the interaction” value is no more than 20%.

B9: zebrafish PIP5K1A kinase catalytic domain, L150A mutant (domain or fragment)
chain: MASTGETTYKKTTSSALKGAIQLGITHSVGSLSQKPERDVLMQDFEVVESIFFPSQGSSSTPGHHHGDFKFKTYAPIAFRYFREMFGIRPDDYLYSLCNEPLIEASNPGASGSLFYVSSDDEFIIKTVQHKEAEFLQTLLPGYFMNLNQNMRTLLPKFYGLYCVQADGKNIRIVVMNNLLPRAVPMHLKFDLKGSTYKRRASPKERSKGVPTYKDLDFMQDMPEGILLENDHYTALSRTMQRDCRVLQSFKIMDYSLLVGIHILHRAGEEASTAVPDTQKKGQGQKPLYCTAIESIQGESKSKTSPQPYESMGGIPAFNSKGERLLVFIGIIDILQSYRLVKKLEHSWKALLHDGDTVSVHRPSFYADRFQKFMCSTVFRKSQLKTLE
notes: kinase catalytic domain of zebrafish PIP5K1Aα, residues 49-431; C-terminal 'Leu-Glu' that precedes the His6 tag; also called Leu-150 to Ala; source: E. coli BL21-CodonPlus(DE3)-RIL, purified in the same way as the wild-type protein; not shown: His6, C-terminal, kept
Regarding B9, the “change in the interaction” value in test [1] is no more than 20%.

B10: zebrafish PIP5K1A kinase catalytic domain, S78A mutant (domain or fragment)
chain: MASTGETTYKKTTSSALKGAIQLGITHSVGSLAQKPERDVLMQDFEVVESIFFPSQGSSSTPGHHHGDFKFKTYAPIAFRYFREMFGIRPDDYLYSLCNEPLIELSNPGASGSLFYVSSDDEFIIKTVQHKEAEFLQTLLPGYFMNLNQNMRTLLPKFYGLYCVQADGKNIRIVVMNNLLPRAVPMHLKFDLKGSTYKRRASPKERSKGVPTYKDLDFMQDMPEGILLENDHYTALSRTMQRDCRVLQSFKIMDYSLLVGIHILHRAGEEASTAVPDTQKKGQGQKPLYCTAIESIQGESKSKTSPQPYESMGGIPAFNSKGERLLVFIGIIDILQSYRLVKKLEHSWKALLHDGDTVSVHRPSFYADRFQKFMCSTVFRKSQLKTLE
notes: as for B1
In the case of B10, the “reduction of the interaction” value in test [1] is greater than 70%.

B11: zebrafish PIP5K1A kinase catalytic domain, K426A mutant (domain or fragment)
chain: MASTGETTYKKTTSSALKGAIQLGITHSVGSLSQKPERDVLMQDFEVVESIFFPSQGSSSTPGHHHGDFKFKTYAPIAFRYFREMFGIRPDDYLYSLCNEPLIELSNPGASGSLFYVSSDDEFIIKTVQHKEAEFLQTLLPGYFMNLNQNMRTLLPKFYGLYCVQADGKNIRIVVMNNLLPRAVPMHLKFDLKGSTYKRRASPKERSKGVPTYKDLDFMQDMPEGILLENDHYTALSRTMQRDCRVLQSFKIMDYSLLVGIHILHRAGEEASTAVPDTQKKGQGQKPLYCTAIESIQGESKSKTSPQPYESMGGIPAFNSKGERLLVFIGIIDILQSYRLVKKLEHSWKALLHDGDTVSVHRPSFYADRFQKFMCSTVFRASQLKTLE
notes: as for B1
In the case of B11, in test [1], the “change in the interaction” value is no more than 20%.

B12: zebrafish PIP5K1A kinase catalytic domain, Q194A mutant (domain or fragment)
chain: MASTGETTYKKTTSSALKGAIQLGITHSVGSLSQKPERDVLMQDFEVVESIFFPSQGSSSTPGHHHGDFKFKTYAPIAFRYFREMFGIRPDDYLYSLCNEPLIELSNPGASGSLFYVSSDDEFIIKTVQHKEAEFLQTLLPGYFMNLNANMRTLLPKFYGLYCVQADGKNIRIVVMNNLLPRAVPMHLKFDLKGSTYKRRASPKERSKGVPTYKDLDFMQDMPEGILLENDHYTALSRTMQRDCRVLQSFKIMDYSLLVGIHILHRAGEEASTAVPDTQKKGQGQKPLYCTAIESIQGESKSKTSPQPYESMGGIPAFNSKGERLLVFIGIIDILQSYRLVKKLEHSWKALLHDGDTVSVHRPSFYADRFQKFMCSTVFRKSQLKTLE
notes: kinase catalytic domain of zebrafish PIP5K1Aα, residues 49-431; C-terminal 'Leu-Glu' that precedes the His6 tag; also called Q194 mutant; source: E. coli BL21-CodonPlus(DE3)-RIL, purified in the same way as the wild-type protein; not shown: His6, C-terminal, kept
For the molecule B12, in test [1], the “change in the interaction” value is no more than 20%.
